Substrate: NC(=O)c1ccc[n+]([C@@H]2O[C@H](COP(=O)(O)OP(=O)(O)OC[C@H]3O[C@@H](n4cnc5c(N)ncnc54)[C@H](OP(=O)(O)O)[C@@H]3O)[C@@H](O)[C@H]2O)c1
Assay: purified protein, by the assay type

B1: thermostable isocitrate dehydrogenase (iCDH) purified from Sulfolobus acidocaldarius DSM 639, FERM BP-5567 (Sulfolobus acidocaldarius DSM 639) (protein)
chain: MVMLYKEPQDGEPIKFEKGKWVVPNKPIILYIEGDGIGPEITNSAIRVVNKAVEKAYKSSREIKWLEVYAGEKANKITGDRFPKETQDMLLKYRVVLKGPLETPIGKGWKSINVAIRLMLDLYANIRPVKYIEGLESPLKHPEKVDMIIFRENTDDLYRGIEFPYDSEEAKKIRKFLREELKVDIEDDTGIGLKVMSKFKTQRITRLALNYALQNSRKKVTVMHKGNVMKYTEGSFREWAYEVALNEYRDKIVTEEEINRGVNSEGKVILNDRIADNMLQQIIIRPDEYDIILAPNVNGDYISDAAGALIGNIGMLGGANIGDTGGMFEAIHGTAPKYAGKNVANPTGIIKSCELMLYFMGWSEAARLIEKAINESIKQKKVTQDIARYLGITPLGTKEYTDTLVQIMDSF
With B1 the Km (other: pH 8.6, 37° C., pH 8.6) was 66 µM, the Km (other: pH 9.5, 37° C., pH 9.5) was 42 µM and the Km (other: pH 10.0, 37° C., pH 10.0) was 48 µM.
